According to the supplement of paper PMC10126150:
± gives the standard deviation of the averaged measurements.

test system: ATP; experiment: switch fluorescence ratio, 500 uM ATP over buffer (Cy3 cluster intensity, sum of 5 cycles each) (fold (ratio)); higher = stronger signal-on switching upon ATP binding; sequences stand for … in TCGTCGGCAGCGTCAGATGTGTATAAGAGACAGTTTTTTTTTTTTTTTTTTTTTTTTT…TC; settings: aptamer strand: ATP DNA aptamer (quencher-CACCTGGGGGAGTATTGCGGAGGAAGG + anchor), 100 nM annealed; ATP concentration: 500 uM
Summary of the method: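 For every switch-domain sequence, the fluorescence ratio is the mean of per-cluster values, each being summed target-cycle Cy3 intensity over summed buffer-cycle Cy3 intensity. Clusters outside 100-1000 RFU were excluded. On a modified Illumina MiSeq flow-cell, the Cy3-labelled switching-strand clusters were annealed to 100 nM quencher-labelled ATP aptamer, imaged in selection buffer and then after 15 min with 500 uM ATP at 22 °C. Five such cycles were run, with NaOH stripping and re-annealing between them.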
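Note: ATP exposure 15 min at 22 °C before imaging.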

| Sequence | switch fluorescence ratio |
| --- | --- |
| CCTGGGGGCA | 1.04 ± 0.0089 |
| CCTGGGGGGA | 1.02 ± 0.059 |
| CCTGTAGGTA | 1.009 ± 0.0069 |
| CCTGTGCGGA | 1.534 ± 0.013 |
| CCTGTGGCAC | 1.21 ± 0.054 |
| CCTGTGTAAT | 3.18 ± 0.053 |
| CCTTAAGACT | 1.07 ± 0.028 |
| CCTTAAGGCG | 1.023 ± 0.0026 |
| CCTTAATTTG | 1.007 ± 0.0089 |
| CCTTAGTTGG | 1.02 ± 0.056 |
| CCTTATGGCG | 0.996 ± 0.076 |
| CCTTATGGGA | 0.982 ± 0.026 |
| CCTTCACCTT | 1.077 ± 0.0017 |
| CCTTCCCGGG | 1.59 ± 0.0072 |
| CCTTCCTGTG | 3.62 ± 0.024 |
| CCTTCGAGG | 1.15 ± 0.2 |
| CCTTGAAGGT | 0.984 ± 0.0091 |
| CCTTGCCGGG | 1.05 ± 0.019 |
| CCTTGGGGGG | 1.03 ± 0.11 |
| CCTTGTAGGT | 1.02 ± 0.038 |
| CCTTGTATAA | 1.07 ± 0.014 |
| CCTTGTATAT | 1.077 ± 0.0083 |
| CCTTTATCGG | 0.997 ± 0.012 |
| CCTTTATGGG | 0.9952 ± 0.0095 |
| CCTTTCCGGG | 1.21 ± 0.048 |

| Sequence | switch fluorescence ratio |
| --- | --- |
| CCTTTCTTTT | 1.04 ± 0.049 |
| CCTTTGGATA | 1.13 ± 0.16 |
| CCTTTTAGCA | 2.07 ± 0.12 |
| CCTTTTAGCG | 1.16 ± 0.055 |
| CCTTTTAGTT | 0.988 ± 0.026 |
| CCTTTTATTT | 1.04 ± 0.018 |
| CCTTTTGCCA | 1.1 ± 0.028 |
| CCTTTTGGGT | 1.015 ± 0.0095 |
| CGAAAAAAAT | 1.03 ± 0.035 |
| CGAAACATGA | 1.01 ± 0.014 |
| CGAAAGGGCT | 0.989 ± 0.036 |
| CGAAATGTCC | 1.061 ± 0.002 |
| CGAAATTTGG | 1.03 ± 0.044 |
| CGAACGGGGA | 1.16 ± 0.049 |
| CGAAGAACTA | 1.023 ± 0.0028 |
| CGAAGACCAG | 1.05 ± 0.081 |
| CGAAGCGGGG | 1.08 ± 0.054 |
| CGAAGCTGGT | 1.075 ± 0.0037 |
| CGAAGGGTAA | 1.02 ± 0.028 |
| CGAAGGGTTA | 0.971 ± 0.027 |
| CGAAGTATAG | 1.37 ± 0.038 |
| CGAAGTTTGT | 0.98 ± 0.01 |
| CGAATAGTTG | 1.005 ± 0.0085 |
| CGAATGAGGT | 0.99 ± 0.04 |
| CGAATTCCGG | 1.01 ± 0.084 |

| Sequence | switch fluorescence ratio |
| --- | --- |
| CGAATTGGTG | 1.03 ± 0.04 |
| CGACAAGAGA | 1.47 ± 0.085 |
| CGACAATGCC | 1.29 ± 0.03 |
| CGACACGCTG | 1.05 ± 0.058 |
| CGACATGGTG | 1.07 ± 0.027 |
| CGACCGGGTA | 1.02 ± 0.023 |
| CGACCTACAG | 1.02 ± 0.02 |
| CGACGTGATG | 1.227 ± 0.0082 |
| CGACGTGCGG | 0.9944 ± 0.0062 |
| CGACGTTCAC | 1.96 ± 0.051 |
| CGACTCATAT | 1.52 ± 0.11 |
| CGACTCGAAA | 1.02 ± 0.016 |
| CGACTGAGGT | 1.03 ± 0.029 |
| CGACTGGAAC | 1.207 ± 0.008 |
| CGACTTACGG | 1.11 ± 0.03 |
| CGAGAAATTT | 1.01 ± 0.022 |
| CGAGAAGGGT | 0.997 ± 0.039 |
| CGAGAGTGTT | 0.995 ± 0.026 |
| CGAGATACTC | 1.86 ± 0.17 |
| CGAGATCGAC | 0.97 ± 0.012 |
| CGAGCATAGG | 1.23 ± 0.085 |
| CGAGCGTGTG | 0.9998 ± 0.0047 |
| CGAGCTGGTT | 0.991 ± 0.0027 |
| CGAGCTTGAA | 1.03 ± 0.022 |
| CGAGCTTTGA | 1.034 ± 0.0084 |

| Sequence | switch fluorescence ratio |
| --- | --- |
| CGAGGAGCAT | 1.01 ± 0.058 |
| CGAGGAGGGA | 0.9686 ± 0.0093 |
| CGAGGATAAA | 0.994 ± 0.027 |
| CGAGGATTTC | 0.9885 ± 0.0094 |
| CGAGGATTTG | 0.994 ± 0.018 |
| CGAGGCCGGG | 1.01 ± 0.015 |
| CGAGGGACCC | 1.01 ± 0.044 |
| CGAGGGAGGC | 1.011 ± 0.0095 |
| CGAGGGGCCC | 1.01 ± 0.036 |
| CGAGGGGGCT | 0.99 ± 0.02 |
| CGAGGGGTAC | 1.4 ± 0.0095 |
| CGAGGGTAGA | 1.01 ± 0.03 |
| CGAGGGTCCG | 0.99899 ± 0.00035 |
| CGAGGGTGTA | 0.999 ± 0.0014 |
| CGAGGGTTTG | 0.9968 ± 0.0032 |
| CGAGGTGGGT | 1.01 ± 0.049 |
| CGAGGTTCTG | 0.97 ± 0.039 |
| CGAGTATCTA | 0.993 ± 0.029 |
| CGAGTATTTT | 1.024 ± 0.0022 |
| CGAGTCTCGT | 1.03 ± 0.04 |
| CGAGTGGGGT | 1.01 ± 0.043 |
| CGAGTGTGGG | 1.01 ± 0.021 |
| CGAGTTTTCG | 1 ± 0.03 |
| CGATAACGGG | 1.07 ± 0.077 |
| CGATAATTTA | 1 ± 0.053 |

| Sequence | switch fluorescence ratio |
| --- | --- |
| CGATAGAAGT | 1.01 ± 0.016 |
| CGATAGGTTT | 1 ± 0.019 |
| CGATATCTAC | 1.06 ± 0.016 |
| CGATATGGTT | 1 ± 0.025 |
| CGATCGGCTG | 0.993 ± 0.019 |
| CGATCGGTGG | 1.01 ± 0.058 |
| CGATCTTGTG | 0.988 ± 0.01 |
| CGATGACATG | 0.9877 ± 0.0082 |
| CGATGATTGT | 1.03 ± 0.059 |
| CGATGCGGGG | 1.011 ± 0.0095 |
| CGATGCTCCG | 0.932 ± 0.024 |
| CGATGCTCTG | 1.01 ± 0.063 |
| CGATGCTGGT | 1.02 ± 0.053 |
| CGATGGAATC | 1.69 ± 0.042 |
| CGATGGAGAG | 1.0297 ± 0.00016 |
| CGATGGCGAC | 1.016 ± 0.0051 |
| CGATGGGAGG | 1.06 ± 0.073 |
| CGATGGGATT | 1.056 ± 0.0043 |
| CGATGGGGGA | 1.02 ± 0.018 |
| CGATGGGGGC | 0.957 ± 0.068 |
| CGATGGGTAA | 1 ± 0.033 |
| CGATGGTACG | 0.946 ± 0.05 |
| CGATGGTGAA | 1.02 ± 0.035 |
| CGATGTGTGG | 0.986 ± 0.015 |
| CGATTAGTCT | 0.9951 ± 0.0021 |

| Sequence | switch fluorescence ratio |
| --- | --- |
| CGATTCGAGT | 0.967 ± 0.016 |
| CGATTCGTCT | 1.05 ± 0.05 |
| CGATTGAATC | 0.991 ± 0.021 |
| CGATTGATCA | 1.004 ± 0.0075 |
| CGATTTTTAG | 0.98 ± 0.032 |
| CGATTTTTGT | 0.982 ± 0.02 |
| CGCAAAAGGG | 1.54 ± 0.41 |
| CGCAAAGATT | 1.06 ± 0.024 |
| CGCAAGTATG | 1.26 ± 0.036 |
| CGCACCACGA | 1.208 ± 0.0072 |
| CGCAGATTCG | 1.01 ± 0.024 |
| CGCAGGATGG | 1.05 ± 0.05 |
| CGCAGGGAGT | 1.041 ± 0.01 |
| CGCAGGGTTC | 1.13 ± 0.12 |
| CGCATATGGC | 2.459 ± 0.016 |
| CGCATCCCGC | 1.37 ± 0.024 |
| CGCATCGCGT | 1.02 ± 0.015 |
| CGCATCGGTC | 1.16 ± 0.049 |
| CGCATGATAG | 1.24 ± 0.036 |
| CGCATGTCTC | 1.81 ± 0.11 |
| CGCATTTTGC | 1.19 ± 0.15 |
| CGCCATGGCC | 0.9924 ± 0.0066 |
| CGCCATGGGT | 0.9915 ± 0.0027 |
| CGCCATTTTT | 0.9822 ± 0.0022 |
| CGCCCCAGGA | 1.85 ± 1.1 |

| Sequence | switch fluorescence ratio |
| --- | --- |
| CGCCCGGAAT | 1.97 ± 0.3 |
| CGCCCGGTAA | 1.13 ± 0.043 |
| CGCCCGTTGT | 1.01 ± 0.013 |
| CGCCCTTGGG | 0.992 ± 0.024 |
| CGCCGACGGC | 1.01 ± 0.018 |
| CGCCGGAGGA | 0.9697 ± 0.0067 |
| CGCCGGCTTT | 1.019 ± 0.0085 |
| CGCCGGGTCC | 1.05 ± 0.02 |
| CGCCTAAACG | 1.04 ± 0.042 |
| CGCCTCGTAC | 1.9 ± 0.062 |
| CGCCTGGGGT | 1.64 ± 0.92 |
| CGCGAAGGGT | 1.01 ± 0.026 |
| CGCGACCATT | 0.967 ± 0.051 |
| CGCGAGAGTT | 1.02 ± 0.0018 |
| CGCGAGCTTT | 1.015 ± 0.0032 |
| CGCGAGGATG | 1.022 ± 0.0099 |
| CGCGATTTTA | 1.04 ± 0.019 |
| CGCGCGGGTG | 1.121 ± 0.011 |
| CGCGCTGACA | 1.009 ± 0.0057 |
| CGCGGAGCGC | 1.17 ± 0.15 |
| CGCGGAGTGA | 1.002 ± 0.01 |
| CGCGGATGGG | 1.05 ± 0.05 |
| CGCGGCGGGT | 1.02 ± 0.034 |
| CGCGGGAGAG | 1.02 ± 0.04 |
| CGCGGGCGGA | 1.021 ± 0.0044 |

| Sequence | switch fluorescence ratio |
| --- | --- |
| CGCGGGGCGC | 1.03 ± 0.028 |
| CGCGGGGCGG | 1.02 ± 0.029 |
| CGCGGGGTGC | 1.06 ± 0.097 |
| CGCGGGTATG | 1.05 ± 0.026 |
| CGCGGTAGCG | 0.972 ± 0.041 |
| CGCGGTCAAC | 1.35 ± 0.2 |
| CGCGGTGCTC | 3.17 ± 0.43 |
| CGCGTAAAAT | 1.04 ± 0.035 |
| CGCGTATGTT | 0.985 ± 0.026 |
| CGCGTCTCCC | 3.58 ± 0.38 |
| CGCGTTTTTG | 1.01 ± 0.014 |
| CGCTACGTGG | 0.99 ± 0.028 |
| CGCTAGGAAA | 1.006 ± 0.0076 |
| CGCTAGGGAC | 1.314 ± 0.003 |
| CGCTATTCGG | 1.04 ± 0.043 |
| CGCTATTTTT | 1.02 ± 0.02 |
| CGCTCATCTG | 0.968 ± 0.052 |
| CGCTCTTGGA | 0.976 ± 0.031 |
| CGCTGACAAG | 0.9916 ± 0.0099 |
| CGCTGATGGG | 1.01 ± 0.071 |
| CGCTGCACAT | 2.21 ± 0.045 |
| CGCTGGCCTT | 0.975 ± 0.016 |
| CGCTGGGATT | 0.9913 ± 0.0057 |
| CGCTGTACAG | 0.96028 ± 0.00038 |
| CGCTGTAGGT | 1.02 ± 0.0058 |
